Measured values from the domain aggregation screens of Martell et al. (2025).

Experiment: soluble fraction after stress (log2 fold change); higher = more stays soluble; pooled small domains, quantitative proteomics
Conditions: stress: 75 degC
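Further: 20 min heating vs room temperature control held 20 min.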

HMKAPPLTDREKEILRWVAAGLQNKEIAHKLGISLATVRNHIHNILEKLDVHSKLEAVSLAFRQGWVS
soluble fraction (log2): -0.356

HMKASEMKKGQTIKIDGVLYVIVDFQHVKLSKGGAVYQTKLRNLAAGGIRDIRIRAEEVLEDA
soluble fraction (log2): -2.97

HMKDITPASEDQLKAITDLMLKVNGEWSDAFFTFISKKFNHQISSPEQLTTFEANTIIDMLRKKAEG
soluble fraction (log2): -0.601

HMKDLDSLSQEAKSVYAVFSDKPIHIDDIKRKTGLDFSKLFKAVTELELAELISSGEGKMYSL
soluble fraction (log2): -0.0075

HMKDLTIRQQQFLNYIKDHLSLTGFPPTRSDIANEMGFKSPNAAEDHLRALARKGAIEIVPGTSRGIRLP
soluble fraction (log2): -0.419

HMKDMKISTKNLLQELAKNYPDQTSFRKNVIETTARAMGYTGKDFYPLLTTDNRVKIGTYDLATFLRSI
soluble fraction (log2): -0.969

HMKDNPNETFERIAGKITRTLRSGPVRIQQLDLLFSESAGKVVDVLRAMAENGEVLIKDDTIQLNGNN
soluble fraction (log2): -0.0108

HMKDTFHNLSEEKRERIIRAALGEFAASGYEKATLDGVVQAAGISKGGLYEYISSKEDLFRYLLEYSYD
soluble fraction (log2): -1.82

HMKDTNENLMKMLALLIHAAKIDENYSDEEKELIVNFAEMSSKENLNREQILSIIKSAEEYE
soluble fraction (log2): -1.24

HMKEADVRKNEILDAAGILFSEKGYDNTSVTDIMNAVGFAKGTLYHHFKSKEDIMDALIKRQTD
soluble fraction (log2): -0.125

HMKEAISIYPNPVKDILTIRGMDETSGVSFKLYDVTGNLLLESTHSELDMSGLNRGVYFLDIAGDVRKVVK
soluble fraction (log2): -0.342

HMKEEDLPREYTDILGNSVHERLNIMIHDIIEHSQDKPEVAMSPEREEAMHGLRRWMFDHVYH
soluble fraction (log2): -0.168

HMKEEVEILGGKATIYTNDYGVWQFRLWLTTDNKYVRKSLRTKVKDYAITEGEKLYIQIRSDIEKGIKYY
soluble fraction (log2): -1.13

HMKEEVSVPDIKGMTYEEAEAKLAKYDLEIEKGETVKASEQYEEGQISSQEPEAGSKVKEGSTIVVDVVE
soluble fraction (log2): 0.185

HMKEFSFNGGKVIMNYEADRIQIKHDSRPNQEVITLMKRNGFKWSPTNQAWQRQITGNAIYVTKNLLKS
soluble fraction (log2): -2.33

HMKEGGGYGQLRLKEAAIQHAFDLQNALQFIAERGYQAHENTTLKEAANALNLKPIELLELLKSSQ
soluble fraction (log2): 0.0627

HMKEIDVPNVVGASENAARKLLESYGFQVEVQWENGERVDNAVVKSYSPNGSAKSGSTVTIVLGT
soluble fraction (log2): 0.0998

HMKEINFTIEESAKGRLDKVIAENVADLTRSQVQSLIKKGQILVNDAPTTNRYQVKPNDQVIIKLPDPV
soluble fraction (log2): 0.396

HMKEKLGEFENVFLSVDELQKLKSKLGAETESYIERLSNYIASSGKKYKSHYATILSWTQKDTK
soluble fraction (log2): -0.88

HMKELASKYEISEYMKFLIENLDKSNFFYPIEKRESMINNIFSIYSKADLSKKELNMLWGMLKKLR
soluble fraction (log2): -2.31

HMKELTELIEKIKLRRLELGLSYQELSDLTGINKSTLQRYETGFIKKVPINQVQIIAKALNVTPGYLMG
soluble fraction (log2): -0.72

HMKEMTAKQIDMFSDKLSKLESFQSHYIADAGVSVTEYKQAIAAKLQDQFYVEAWGKYLADVGFT
soluble fraction (log2): -0.393

HMKEPIYQTILSALILELNTNHFRKNDPFYSESELRKKYQVSSTTVVRVLNMLADQGYIYRIQGKGSFVSK
soluble fraction (log2): -2.62

HMKESFAQLFSLLTPTEQKVAALISQGFSNKDIAAKMFISLSTVKTHTNHIFAKMGVANRNALVAKVNN
soluble fraction (log2): -1.46

HMKESRFDYDAVLLYSDKDSITEVKDAVQHLTKEFGSVFTTKKIPEKATFGKLFRIEKGEVNIIEDN
soluble fraction (log2): 0.367

HMKESRLFRILYYLLQHKKATAPELAEEFEVSVRTIYRDIDYISSAGVPIYATQGKDGGIAILDSF
soluble fraction (log2): -0.777

HMKETLSINSTDFEVRRSSRRKRISVGFDTGTETFFIAAPTKLAGTDILRILGPQISRLMDRLT
soluble fraction (log2): -2.22

HMKEVDERPWGKYEVLLDAPDVKVKRITVNPGQRLSYQYHEKRAEVWTVVSGILTIILEDDKLFRG
soluble fraction (log2): 0.17

HMKFIPPSLEEARAYFVEKGSSEPEAEKFVNHFDSIGWKVGRARTPMKKWKSAANNWIANNREWNQ
soluble fraction (log2): -0.543

HMKFKDYYAALGIDRNADLEQIKKAYRKLARQYHPDVSKAPDAEARFKDAAEAYATLKNPEKRAAYDELGS
soluble fraction (log2): 0.0895

HMKFLHLADLHLGKRVNGFSMLEDQAYILRQILTILDDERPDGVLIAGDVYDKPVPPTEAVELLD
soluble fraction (log2): -0.859

HMKFLYQKAREEIISLIQDGEIKPSEKIMPERELSELLGYNRMTIKKAINSLVAEGVLMKKRGAGTFLLG
soluble fraction (log2): -0.292

HMKFLYQQVYQDIKDKITSAQYQFGDLLPSEREIGEEYHVDRTTVRKAFSLLVDEGLVEKRAGKGSVVIS
soluble fraction (log2): -0.74

HMKFTELEQLMLKREINTLADIARVLKTTPQAVSNWKARDQIPYHIVAKINASINKDSNDSSLSI
soluble fraction (log2): -0.328

HMKFTSEKDISLLELVKAKMGFVSNTKARNVIKIGQIMVSGKVIKIPSTLIKPGTEVELARRV
soluble fraction (log2): -1.76

HMKFYKMIDESDEKIENPEIMIFQIIELVSSTTYSAIINKEPVDVETLKPYLYQTIRTIIINHQS
soluble fraction (log2): 0.363

HMKGEKVTKIELSNFIKFLINDLENKGFFNPPEKKDSMIDNIYSIYNKMTLTKKELNMLWGMHKKLK
soluble fraction (log2): -1.9

HMKGERHNKILELIQQHAIDRQEDLLRYLKEAGFQVTQATVSRDIRELHLVKVAAGGGQYRYVSAAAAS
soluble fraction (log2): -1.04

HMKGIHDYITKDGLRVVKVHYSADPDKDVTTVEGKKWMAKALLGYPGGLEGAKWRREMEIDFNA
soluble fraction (log2): -0.167

HMKGILVPASSIISDGDKNYVWTVEKGKAKKVEVTLGNADAENQEISSGLTKDSKVITNPTDSLKDGQEV
soluble fraction (log2): 0.228

HMKGKDLQDAVVTVVGGAENWNAIRAWAQASASDSEKREINAAFQSGKLMATMMAERLALAYQQSG
soluble fraction (log2): 0.182

HMKGKITTNWVSLTSDLGWLRSELYSSGSVLEERISNEGLIELHLENFQNDLIKLLEVEGFDLIKE
soluble fraction (log2): -3.18

HMKGQLVVFPNPASSNDMVRFNKNISFSIFDITGHLVDTKRNVNELSVGNLEAGTYILRTEQGDVLRMVI
soluble fraction (log2): -1.45

HMKGRPTTAIITDERTNLRSGPGATNKTIAQAGAGEKLAIIDEKDGWYQVSRAGINGWVAGWVIDVAW
soluble fraction (log2): -1.83

HMKGSIFLDEATKMVDNSALKSLNTFLEEYARETNNQIFLISHQETPAEVTQIKLKKVGGETSYE
soluble fraction (log2): 0.154

HMKGSPFSQLPKEKKKRILQAAIEVFAQNDYKHASTDEIASRAGISKGLLFYYFHDKKTLYFYLGEYLKR
soluble fraction (log2): 0.118

HMKGTLPEMITSREEVVLKFMVNGWDAKRIASELDISVLTVRKHIANIYEKLHVQSKAEIISMAHQQKWFN
soluble fraction (log2): -3.27

HMKGTSIELIVPQDIAGLRLDQVLAKLLPQWSRSRLQSWINEKHITVNGQTTTAKQKLWGNETIQIIPPI
soluble fraction (log2): -1.45

HMKHEFSEEWLDWIKSNIADGQNKNGLFKVLLNHGYAYDAVREVMQYEPTVPLDELVDPLRA
soluble fraction (log2): -0.143

HMKHFNDEELDGFAGLKSDDYNEEQVELFRNIFEELHPDEIIEWTESLRRRGIEIPSSLKDEVVMMIN
soluble fraction (log2): 0.29

HMKHFTYEEMELMSIYDPGTREGLIANLEEMRGYLEPDETELRELTDSALEKLRELSDADYEQLELI
soluble fraction (log2): -0.516

HMKHMTMYEAAKIAKEVGAPKLWLTHYSPSMTRPEEFMDDVRKIFPAAYAAKDGWTMELNFDEG
soluble fraction (log2): -0.74

HMKHRTQMDIQQLPAIEGKGGFEYKISIIHLSTRIKYSEIHDNYNTTTIAKVYENAIERLPPF
soluble fraction (log2): -2.39

HMKHSLNHLGLWLLPELSRRDIQLREFAHLLGTTSQGLSDLLRGQRFSSHTLAQWQLRFQEKLDEIDQAS
soluble fraction (log2): -1.99

HMKHTVSVDRLQPGVFVSLGGLSWLDHPFLLNRFRLTDHDQIKVLRSLGVKEIEWDPTRSTAQPLPE
soluble fraction (log2): -1.04

HMKIAPRTAENQQLRKMILEIYTTSKKRVGPAKVRRMLLRDYGISISIGRVYRLMSTMNLPKMS
soluble fraction (log2): 0.0421

HMKIDLPIWLNKKAWEAWVEYKKERKQKLTPSIIKFQLRILEKNKEDHPEIIRNSITNGWTGLFPLK
soluble fraction (log2): -1.81

HMKIEDSNTIKLKANQAYKTHYYSEAIKLYDELLTKYEPNSEAIKLNLAHAHFKAKGFAAASKLYT
soluble fraction (log2): 0.0472

HMKIELTDQQKSLVVDEWNKGEANPPSLLQLIRLAYPDQPHLDGRSKEGKAVKAFLATRDINPLA
soluble fraction (log2): 0.0244

HMKIETVENPLLERTEISALFDSKSGSLTRKEAIDLISKKARIDSSTVYAIKLSNSSGSTRIIGLFY
soluble fraction (log2): 0.16

HMKIIDDIQEFAGVTKTQNTFFHIFNHLHQNGKQLILTSDRAPVMLQGMEERLLTRFKWGLVAELE
soluble fraction (log2): 0.285

HMKIKKIWFDGDYIYGMDERNNTYRQSLLWYSKLRNASAEERERYTFSTIGIHWRELDEDVSFESF
soluble fraction (log2): -3.03

HMKIKLQATEQQRKTLDELYVQLKKLEPTSKEDLSLLYRLENPHLVSKQEAQGLISIAIGRVGSLAIEQQ
soluble fraction (log2): -0.44

HMKINKQHLAFQIFGIRAKLGLSMEQFGELLGANKSSVSGWERGTVVPSSQRLKKIAELGKISLAELLTP
soluble fraction (log2): -3.01

HMKINVQETEVYRYLLERADRLYSMILGEERENLMERTRFFEKEVAKASLPHLPKLYDEFSIYLDRLERG
soluble fraction (log2): -0.393

HMKIPYGELIKLLNAAAPKLQDAQGWMDMEAAGQFIGSRWSYLDYGFKDWPDSFKTVHGLEIQGQRMRLA
soluble fraction (log2): -0.577

HMKIQISGSQRIDENVVVKVAGLSFPQSLLSLEPGQIESKLMQELPVQEVSVQRRLLPPGLDIQLVE
soluble fraction (log2): -0.0996

HMKIQTYEDFRNAYPDIQGSLFGSAERYKTDLDWGDVAAKYDADEELKNVRNIFQLVRRYEQKYS
soluble fraction (log2): 0.612

HMKISIPQEYFEIYNVLKQRPMHINEISKILKKPVSEISGTISLMEIEGYITKLTTDQYVLKKI
soluble fraction (log2): -0.473

HMKITADQEIETAINYFKKSIAEKGWKGVNPDEFKQMNDYLSETFGYSATIKFQKALDEQGLMVDE
soluble fraction (log2): -0.0068

HMKITININIETLSHHIKQSGVPLGRLQESVPDYNEIVTGNKSPTYQQLEKISKLIRVPLGLLVIESPL
soluble fraction (log2): 0.039

HMKITLAESVYERIRRDIITNQLKPGEKINIRELSTRYEASETPIRLALNRLASENIIEHFPRQGMRVK
soluble fraction (log2): -1.4

HMKIVPEPGTVLIREYQEERHEVTVTLDGAFDYKGTLYSSLSEIARLITGTRWSGPVFFGLRS
soluble fraction (log2): -0.369

HMKIYDQVVDRIKDRISKGDMPQGSALPPERQLIDELNVSRSSLREGFRILEMMGLIESIPGKGRFVRTSR
soluble fraction (log2): -0.607

HMKKAIYPGSFDPLTLGHIDIIKRASGIVDELVVGVLNNSAKNSLFSLDERVSMIEEMTKDLPNVSVTSFD
soluble fraction (log2): 0.16

HMKKEDFLEILRDYLKKGFSEDEVMDILRDYEEYFVDGIIEGKSEIEIIQSLGSPKEIANELLAES
soluble fraction (log2): -0.631

HMKKEQVIVPNVVGDTYDVALRKLTDAKLKVGETFPADREGHQGVIEKQSPAAGETVDEDTPVALFFKV
soluble fraction (log2): 0.0903
